Source: the supplement of paper PMC6755084

B1: F1*; the commonest letter at each place (parent)
chain: GAGACCGCAACTGAAAAGTTGTTATCACTTGTCGTAAGACACTTTGGATGGGTTGAAGTTCTGCACGTAGAAGCAAAAGGC

Variants of: B1
Assay: fraction ligated after 30 min (ligated reads / total reads); higher = more ligase activity
Conditions: with F1*sub RNA substrate (template-directed ligation), 42 °C
How it was run: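 Ribozyme variants were transcribed with T7 from PCR-amplified oligo-pool templates and gel-purified. Ligated and unligated bands, separated on gel, were reverse transcribed with barcoded primers and sequenced on a MiSeq, with core bases filtered at quality ≥20. Fraction ligated per variant was computed as ligated reads divided by total reads.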

Question: Which fraction ligated does the source give for GAGACCGCAACTGAAAAGTTGTTATCACTTGTCGTAAGGCCCTTTGGATGGGTTGAAGTTCTGCACGTAGAAGCAAAAGGC [A39G A41C] here?
Answer: 0.781

Question: How did the fraction ligated turn out when GAGACCGCAACTGAAAAGTTGTTATCACTTGTCGTAAAAAACTTTGGATGGGTTGAAGTTCTGCACGTAGAAGCAAAAGGC [G38A C40A] was run?
Answer: 0.83

Question: Which fraction ligated does the source give for GAGACCGCAACTGAAAAGTTGTTAACACTTGTGGTAAGACACTTTGGATGGGTTGAAGTTCTGCACGTAGAAGCAAAAGGC [T25A C33G] here?
Answer: 0.229

Question: For GAGACCGCAACTGAAAAGTTGTTATCACTTGCCGGAAGACACTTTGGATGGGTTGAAGTTCTGCACGTAGAAGCAAAAGGC [T32C T35G], which fraction ligated is on record?
Answer: 0.808

Question: For GAGACCGCAACTGAAAAGTTGTTATCACTTATCGTAAAACACTTTGGATGGGTTGAAGTTCTGCACGTAGAAGCAAAAGGC [G31A G38A], which fraction ligated is on record?
Answer: 0.796

Question: With GAGACCGCAACTGAAAAGTTGTTATGACTTGTCTTAAGACACTTTGGATGGGTTGAAGTTCTGCACGTAGAAGCAAAAGGC [C26G G34T] as the variant, how does the fraction ligated read?
Answer: 0.718

Question: GAGACCGCAACTGAAAAGTTGTTATCACTTCTCGAAAGACACTTTGGATGGGTTGAAGTTCTGCACGTAGAAGCAAAAGGC [G31C T35A] was tested. Which fraction ligated did it give?
Answer: 0.796

Question: For GAGACCGCAACTGAAAAGTTGTTATCACTTATCGTAAGACACTTTGGATCGGTTGAAGTTCTGCACGTAGAAGCAAAAGGC [G31A G50C], which fraction ligated is on record?
Answer: 0.0295

Question: With GAGACCGCAACTGAAAAGTTGTTATCACGTGTCGTAAGACGCTTTGGATGGGTTGAAGTTCTGCACGTAGAAGCAAAAGGC [T29G A41G] as the variant, how does the fraction ligated read?
Answer: 0.815

Question: With GAGACCGCAACTGAAAAGTTGTTATCACTTGTCGTCAGACACTCTGGATGGGTTGAAGTTCTGCACGTAGAAGCAAAAGGC [A36C T44C] as the variant, how does the fraction ligated read?
Answer: 0.815

Question: How did the fraction ligated turn out when GAGACCGCAACTGAAAAGTTGTTTTCACGTGTCGTAAGACACTTTGGATGGGTTGAAGTTCTGCACGTAGAAGCAAAAGGC [A24T T29G] was run?
Answer: 0.716

Question: GAGACCGCAACTGAAAAGTTGTTATCACTTGTCATAAGAAACTTTGGATGGGTTGAAGTTCTGCACGTAGAAGCAAAAGGC [G34A C40A] was tested. Which fraction ligated did it give?
Answer: 0.817

Question: GAGACCGCAACTGAAAAGTTGTTATCATTTGTCGTAAGACACTTTGGAAGGGTTGAAGTTCTGCACGTAGAAGCAAAAGGC [C28T T49A] was tested. Which fraction ligated did it give?
Answer: 0.743

Question: Which fraction ligated does the source give for GAGACCGCAACTGAAAAGTTGTTATCACTTGTCGTAAGACACTTTGGATGGGTTGCCGTTCTGCACGTAGAAGCAAAAGGC [A56C A57C] here?
Answer: 0.447

Question: Which fraction ligated does the source give for GAGACCGCAACTGAAAAGTTGTTATCACTGCGGGTAACCGCCTTTGGATGGGTTGAAGTTCTGCACGTAGAAGCAAAAGGC [T30G G31C T32G C33G G38C A39C C40G A41C] here?
Answer: 0.828

Question: GAGACCGCAACTGAAAAGTTGTTATCACTTGTCGTAAGACACTGTGGACGGGTTGAAGTTCTGCACGTAGAAGCAAAAGGC [T44G T49C] was tested. Which fraction ligated did it give?
Answer: 0.183

Question: How did the fraction ligated turn out when GAGACCGCAACTGAAAAGTTGTTATCTCTTGTCGTAAGACACTTTGGATGGGTTGAAGTTCTGCACGTAGAAGCAAAAGGC [A27T] was run?
Answer: 0.8

Question: How did the fraction ligated turn out when GAGACCGCAACTGAAAAGTTGTTATTACTTTTCGTAAGACACTTTGGATGGGTTGAAGTTCTGCACGTAGAAGCAAAAGGC [C26T G31T] was run?
Answer: 0.585

Question: How did the fraction ligated turn out when GAGACCGCAACTGAAAAGTTGTTATCACTTGTCGTAAGACGCTCTGGATGGGTTGAAGTTCTGCACGTAGAAGCAAAAGGC [A41G T44C] was run?
Answer: 0.76

Question: How did the fraction ligated turn out when GAGACCGCAACTGAAAAGTTGTTATCACTTGTCGTAAGACGCTATGGATGGGTTGAAGTTCTGCACGTAGAAGCAAAAGGC [A41G T44A] was run?
Answer: 0.796

Question: GAGACCGCAACTGAAAAGTTGTTATCACTTGCCGTAAGAAACTTTGGATGGGTTGAAGTTCTGCACGTAGAAGCAAAAGGC [T32C C40A] was tested. Which fraction ligated did it give?
Answer: 0.771

Question: How did the fraction ligated turn out when GAGACCGCAACTGAAAAGTTGTTATCATTTGTCGTAAGACACTTTGGATCGGTTGAAGTTCTGCACGTAGAAGCAAAAGGC [C28T G50C] was run?
Answer: 0.323

Question: With GAGACCGCAACTGAAAAGTTGTTATCACTTGTCGTAAGACACCTTTGATGGGTTGAAGTTCTGCACGTAGAAGCAAAAGGC [T43C G46T] as the variant, how does the fraction ligated read?
Answer: 0.776

Question: With GAGACCGCAACTGAAAAGTTGTTATAAATTGTCGTAAGACACTTTGGATGGGTTGAAGTTCTGCACGTAGAAGCAAAAGGC [C26A C28A] as the variant, how does the fraction ligated read?
Answer: 0.64

Question: How did the fraction ligated turn out when GAGACCGCAACTGAAAAGTTGTTATCACTAGTCGTAAGACACTTTGGATGGGTTGGAGTTCTGCACGTAGAAGCAAAAGGC [T30A A56G] was run?
Answer: 0.797

Question: Which fraction ligated does the source give for GAGACCGCAACTGAAAAGTTGTTATCACTTGTAGTAAGCCACTTTGGATGGGTTGAAGTTCTGCACGTAGAAGCAAAAGGC [C33A A39C] here?
Answer: 0.792

Question: Which fraction ligated does the source give for GAGACCGCAACTGAAAAGTTGTTACCACTTGTCGTAAGACACTTTGGCTGGGTTGAAGTTCTGCACGTAGAAGCAAAAGGC [T25C A48C] here?
Answer: 0.686

Question: GAGACCGCAACTGAAAAGTTGTTATCACTTGTCGTAAGACATTATGGATGGGTTGAAGTTCTGCACGTAGAAGCAAAAGGC [C42T T44A] was tested. Which fraction ligated did it give?
Answer: 0.862

Question: GAGACCGCAACTGAAAAGTTGTTATCAGTTGTGGTAAGACACTTTGGATGGGTTGAAGTTCTGCACGTAGAAGCAAAAGGC [C28G C33G] was tested. Which fraction ligated did it give?
Answer: 0.505

Question: With GAGACCGCAACTGAAAAGTTGTTATCACTTGTCGTAAGCCACTTTGGGTGGGTTGAAGTTCTGCACGTAGAAGCAAAAGGC [A39C A48G] as the variant, how does the fraction ligated read?
Answer: 0.776

Question: For GAGACCGCAACTGAAAAGTTGTTATCACTTGTAGTAAGACACTTTGGACGGGTTGAAGTTCTGCACGTAGAAGCAAAAGGC [C33A T49C], which fraction ligated is on record?
Answer: 0.37

Question: How did the fraction ligated turn out when GAGACCGCAACTGAAAAGTTGTTATCACTTGTCGTAAGACACATTGGATGGGTTGCAGTTCTGCACGTAGAAGCAAAAGGC [T43A A56C] was run?
Answer: 0.79

Question: GAGACCGCAACTGAAAAGTTGTTGTCACTAGTCGTAAGACACTTTGGATGGGTTGAAGTTCTGCACGTAGAAGCAAAAGGC [A24G T30A] was tested. Which fraction ligated did it give?
Answer: 0.745

Question: How did the fraction ligated turn out when GAGACCGCAACTGAAAAGTTGTTATCACTTGTCGTAAGTCACTTTGGATGGGTTGATGTTCTGCACGTAGAAGCAAAAGGC [A39T A57T] was run?
Answer: 0.781
